Values belong to the molecule of their own block, whether it stands above or below them. Residues, ends and D or L forms follow the SMILES beside them. No end group written: not given here. *: point of attachment. Cbz = O=C(OCc1ccccc1)*
Columns and labels:
[1] = target: T1, QRFPR (Homo sapiens, UniProt Q96P65); experiment: QRFPR levels after prolonged GDF15 stimulation with or without proteasome inhibition; assay type: cell-based; settings: MG132 10 μM + GDF15 overnight vs equal GDF15 without MG132; FIG. 6
T1 construct: endogenous in cells
T1 sequence (Q96P65 1-431): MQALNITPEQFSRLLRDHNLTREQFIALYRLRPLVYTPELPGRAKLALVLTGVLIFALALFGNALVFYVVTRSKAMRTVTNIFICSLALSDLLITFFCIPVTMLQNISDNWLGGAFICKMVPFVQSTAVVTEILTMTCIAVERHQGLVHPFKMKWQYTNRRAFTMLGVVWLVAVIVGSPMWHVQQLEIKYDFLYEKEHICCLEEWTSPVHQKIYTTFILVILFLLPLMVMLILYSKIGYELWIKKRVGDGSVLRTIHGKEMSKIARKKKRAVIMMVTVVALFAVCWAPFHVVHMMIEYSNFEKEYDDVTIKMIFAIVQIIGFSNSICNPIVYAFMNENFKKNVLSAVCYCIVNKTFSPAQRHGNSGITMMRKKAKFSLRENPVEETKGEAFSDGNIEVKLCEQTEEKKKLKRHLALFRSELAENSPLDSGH
Experimental: This effect is not seen in cells which are treated with MG132 (FIG. 6D).

[2] = target: T2, GDF15 (Homo sapiens, UniProt Q99988); experiment: Pull down of GDF15 by Fc fusion proteins with stringent washes; assay type: binding; settings: 20 μg Fc fusion protein, 0.5 μg GDF15, protein-G bead, FIG. 27
T2 construct: purchased Abcam
T2 sequence (Q99988 197-308 limits assumed): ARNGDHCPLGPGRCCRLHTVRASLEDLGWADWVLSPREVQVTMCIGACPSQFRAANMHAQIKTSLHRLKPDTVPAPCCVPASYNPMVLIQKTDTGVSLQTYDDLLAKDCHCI
Experimental: (§1) 20 μg Fc fusion protein constructs were incubated with 0.5 μg GDF15 and protein-G bead with mixing for 6 hrs in +4 C in PBST+1% BSAs. Wash 6 times: 3 times PBST, change tubes, 2 washes PBST+220 mM NaCl. Last wash PBS. The beads were collected using a table-top centrifuge set at 500 g for 5 minutes between washes. Detection The material was loaded on a 4-12% gradient gel, run at 100 volt, transferred to PVDF membrane using a Turbo Tank blot system, blocked by PBS with 3% BSA 1 hr RT, and incubated with RD systems a monoclonal anti-GDF15 antibody overnight. A secondary antibody: mouse HRP 1:2000 was used for detection. The size of band was estimated by comparing with a seeblue2 protein ladder marker run in an adjacent lane.
The fragments from the receptors were selected based on previous results including array data indicating direct interaction with GDF15. In the array, the interaction is between a peptide monomer and the ligand.

[3] = tested on: CD14+ cells; experiment: Cytokine secretion by LPS-stimulated CD14+ cells (Proseek assay); assay type: cell-based
Experimental: CD14+ cells where isolated and cultured in the presence or absence of GDF15 in a LPS stimulated culture.
Buffy coat cell suspension or heparinized blood samples were diluted with sterile, room temperature PBS. Peripheral blood samples are diluted 1:1, whereas buffy coats are diluted to a final volume of 120 ml (in a standard buffy coat this will result in slightly greater dilution than 1:1). The diluted cell suspension was layered onto Ficoll Paque PLUS. For one buffy 4×15 ml aliquots are used (30 ml of diluted cell suspension/tube). Cells were centrifuged at 400×g for 30 min at room temperature and transferred to a new 50 ml tube. Cells were washed once and resuspended in 20 ml PBS.
Mononuclear cell suspension was pelleted by centrifugation. Cells were resuspended in Stemcell buffer at a concentration of 10^8 cells/ml and transferred to a round bottom 14 ml tube. EasySep Positive Selection cocktail at was added at 100 μl/ml cells, mixed by gentle pipetting, and incubated at room temperature for 15 min. 50 μl EasySep Magnetic Nanoparticles per 1 ml cells were added and mixed, and incubated at room temperature for 10 min. Stemcell recommended medium was added to bring the cell suspension to a total volume of 5 ml and mixed by gently pipetting. The tube (without cap) was placed into the magnet and set aside for 5 min. After 5 minutes the supernatant was discarded. CD14+ labelled cells will remain inside the tube. The tube was removed from the magnet and add 5 ml Stemcell recommended medium was added and mixed by gently pipetting. The tube (without cap) was placed into the magnet and set aside for 5 min. The was step was repeated before the cells were resuspended in 5 ml complete RPMI medium. 50 μl of the CD14+ cell suspension was removed and counted to determine total cell number after dilution in Trypan blue solution and mounting on Fast Read 102 Counting Slides.
Adjust CD14+ cell suspension volume to a concentration of 0.833×10^6 cells/ml in complete RPMI medium. 300 μl of cell suspension is added to wells in a 48 well plate well (0.25×10^6 cells per well), and allowed to adhere for 90 min in an incubator at 37° C. Non-adherent cells were removed by removal of the supernatant after gently pipetting the medium. Cells were washed once with 300 μl pre-warmed complete RPMI medium and the medium aspirated off. 300 μl pre-warmed complete RPMI medium was added to each well and the cells were incubate overnight (20-24 h) in a cell incubator at 37° C.
A 17× stock solution of the desired GDF15 modulatory substances was diluted in complete RPMI. (20 μl of substance/well assayed). 20 μl of modulatory substance or medium/carrier (negative control) was added to each well and mixed by gentle pipetting. Cells were incubated for 30 min in a cell incubator at 37° C. A 17×GDF15 solution was prepared by diluting a 100 μg/ml stock solution to a concentration of 8.5 μg/ml (final concentration in culture 0.5 μg/ml) in complete RPMI. 20 μl of diluted GDF15 was added per well, and incubated overnight (18-20 h) in a cell incubator at 37° C.
A 18×LPS solution was prepared by diluting the LPS stock solution to a concentration of 18 ng/ml (final concentration in culture 1 ng/ml) in complete RPMI. 20 μl of LPS or medium (negative control) was added to each well and mixed by gentle pipetting. […]
Secreted proteins from cell cultures where quantified using multiplexed proximity extension assay, Proseek (Assarsson E et al PlosOne 2014) by Olink Proteomics AB (Uppsala Sweden). […]

[4] = target: T2, GDF15; experiment: Biotin pull-down of GDF15 using biotinylated peptides derived from QRFPR and CLPTM1; assay type: binding; settings: N-terminal biotin peptides on Streptavidin-agarose beads, extensive washes; FIG. 8A
Experimental: In order to further characterise the peptides which interact with GDF15, a series of GST-fusion proteins and biotinylated peptides was prepared. GDF15 was obtained from Biovision and/or Abcam.
A series of peptides from the QRFPR and the CLPTM1 proteins was designed. In order to use the peptides both for immunoprecipitation experiments and cell culture based assays added an N-terminal biotin was added to each peptide, and the counter-ion changed to chloride.
A series of biotinylated peptides was used (FIG. 8A). […] Combinations of the peptides were also used. Peptides were mixed in a 1:1 ratio, with same total amounts as in lanes 1-5, resulting in 50% of each peptide as compared to lanes 1-5. Lane 6: EC domain 3 & EC domain 4 from QRFPR; Lane 7: EC domain 4 from QRFPR & peptide from EC domain of CLPTM1; Lane 8: EC domain 3 from QRFPR & peptide from EC domain of CLPTM1; Lane 9: Mw markers; Lane 10: GDF15 (positive control).

[5] = target: T3, Growth and differentiation factor 15 (GDF15) (UniProt Q99988 197-308, limits assumed); experiment: Fc-fusion pull-down on protein-G beads, Western blot
T3 construct: Purchased GDF15 added to cells, pull-downs, peptide arrays and ELISA; also called MIC1
T3 sequence (looked up): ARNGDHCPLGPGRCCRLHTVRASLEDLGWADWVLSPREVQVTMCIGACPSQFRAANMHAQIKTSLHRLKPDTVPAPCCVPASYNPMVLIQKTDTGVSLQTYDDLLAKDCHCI
Experimental: as §1

[6] = target: T4, Cleft Lip and Palate Transmembrane protein 1 (CLPTM1) (human, UniProt O96005 2-669); experiment: in situ PLA on NK-92 cells
T4 construct: Endogenous receptor of NK-92 cells, CD14+ cells and human tissues
T4 sequence: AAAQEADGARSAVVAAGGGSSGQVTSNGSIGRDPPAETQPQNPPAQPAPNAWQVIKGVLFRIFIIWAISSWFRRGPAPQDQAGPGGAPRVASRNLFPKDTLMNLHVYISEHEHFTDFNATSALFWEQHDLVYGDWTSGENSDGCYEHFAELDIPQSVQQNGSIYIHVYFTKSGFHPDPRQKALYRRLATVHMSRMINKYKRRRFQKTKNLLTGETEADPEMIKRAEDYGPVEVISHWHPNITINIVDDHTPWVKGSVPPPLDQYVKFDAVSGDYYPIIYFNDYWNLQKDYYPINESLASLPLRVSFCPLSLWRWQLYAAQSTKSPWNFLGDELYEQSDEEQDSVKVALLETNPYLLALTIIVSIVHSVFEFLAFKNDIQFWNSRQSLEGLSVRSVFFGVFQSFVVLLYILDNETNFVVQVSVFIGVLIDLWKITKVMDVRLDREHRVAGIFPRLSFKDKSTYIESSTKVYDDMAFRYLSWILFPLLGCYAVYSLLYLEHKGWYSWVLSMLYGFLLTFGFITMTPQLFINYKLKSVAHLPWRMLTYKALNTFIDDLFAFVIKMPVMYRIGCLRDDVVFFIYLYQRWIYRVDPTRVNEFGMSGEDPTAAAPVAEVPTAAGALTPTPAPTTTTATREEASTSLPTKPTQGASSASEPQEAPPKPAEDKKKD

[7] = LPS stimulated CD14+ cells with GDF15 + agent

Molecule: CC(C)C[C@@H](C=O)NC(=O)[C@H](CC(C)C)NC(=O)[C@H](CC(C)C)NC(=O)OCc1ccccc1 [MG132, reference compound] (Cbz-Leu-Leu-Leu-aldehyde)
- levels of QRFPR [1]: levels of QRFPR were increased

- pull down of GDF15 by Fc fusion protein [2]: capable of pulling down GDF15
Molecule: Fc mouse IgG1-GGGGSGGGGSGGGGSYISEHEHFTDFNATSALFWEQHDLVYGDWTS ({Fc mouse IgG1}-GGGGSGGGGSGGGGSYISEHEHFTDFNATSALFWEQHDLVYGDWTS) [AP2, Fc fusion protein with CLPTM1 peptide]
- secretion of IFNγ ([3]; LPS stimulated CD14+ cells + agent, FIG. 30): demonstrated secretion of the pro-inflammatory protein IFNγ
- secretion of IL12 [3, 7]: increase in secretion of both cytokines
- secretion of TNF [3, 7]: increase in secretion of both cytokines

Molecule: GALFWEQHDLVYGDWTS (listed as Homo sapiens) [SEQ ID NO:19]
- GDF15 precipitated by biotinylated peptide (pull-down) [4]: more successful than the others in precipitating GDF15

Molecule: GEIKYDFLYEKEHICCLEEWTS (listed as Homo sapiens) [SEQ ID NO:10]
- GDF15 precipitated by biotinylated peptide (pull-down) [4]: more successful than the others in precipitating GDF15

- binding result [5]: binds
B1: AP5 (QRFPR peptide): Fc mouse IgG1-GGGGSGGGGSGGGGSQRLEIKYDFLYEKEH (Fc fusion, not shown: a dimerising Fc or GST)
chain: {Fc mouse IgG1}-GGGGSGGGGSGGGGSQRLEIKYDFLYEKEH
modifications: also: Fc fusion dimer
notes: if the entry holds the Fc too, the first part is redundant; also called AP5 construct; Fc fusion protein comprising a QRFPR polypeptide

- binding result [6]: binds
B2: TGFBRI (ALK5) (receptor, UniProt P36897 34-503, looked up)
chain: LQCFCHLCTKDNFTCVTDGLCFVSVTETTDKVIHNSMCIAEIDLIPRDRPFVCAPSSKTGSVTTTYCCNQDHCNKIELPTTVKSSPGLGPVELAAVIAGPVCFVCISLMLMVYICHNRTVIHHRVPNEEDPSLDRPFISEGTTLKDLIYDMTTSGSGSGLPLLVQRTIARTIVLQESIGKGRFGEVWRGKWRGEEVAVKIFSSREERSWFREAEIYQTVMLRHENILGFIAADNKDNGTWTQLWLVSDYHEHGSLFDYLNRYTVTVEGMIKLALSTASGLAHLHMEIVGTQGKPAIAHRDLKSKNILVKKNGTCCIADLGLAVRHDSATDTIDIAPNHRVGTKRYMAPEVLDDSINMKHFESFKRADIYAMGLVFWEIARRCSIGGIHEDYQLPYYDLVPSDPSVEEMRKVVCEQKLRPNIPNRWQSCEALRVMAKIMRECWYANGAARLTALRIKKTLSQLSQQEGIKM
notes: whole, on cells; also called TGFBR1

- binding result [5]: binds
B3: AP2 (CLPTM1 peptide): Fc mouse IgG1-GGGGSGGGGSGGGGSYISEHEHFTDFNATSALFWEQHDLVYGDWTS (Fc fusion, not shown: a dimerising Fc or GST)
chain: {Fc mouse IgG1}-GGGGSGGGGSGGGGSYISEHEHFTDFNATSALFWEQHDLVYGDWTS
modifications: also: Fc fusion dimer
notes: also called AP2 construct; Fc fusion protein comprising a CLPTM1 polypeptide

- binding result [6]: binds
B4: TGFBRII (receptor, UniProt P37173 23-567, looked up)
chain: TIPPHVQKSVNNDMIVTDNNGAVKFPQLCKFCDVRFSTCDNQKSCMSNCSITSICEKPQEVCVAVWRKNDENITLETVCHDPKLPYHDFILEDAASPKCIMKEKKKPGETFFMCSCSSDECNDNIIFSEEYNTSNPDLLLVIFQVTGISLLPPLGVAISVIIIFYCYRVNRQQKLSSTWETGKTRKLMEFSEHCAIILEDDRSDISSTCANNINHNTELLPIELDTLVGKGRFAEVYKAKLKQNTSEQFETVAVKIFPYEEYASWKTEKDIFSDINLKHENILQFLTAEERKTELGKQYWLITAFHAKGNLQEYLTRHVISWEDLRKLGSSLARGIAHLHSDHTPCGRPKMPIVHRDLKSSNILVKNDLTCCLCDFGLSLRLDPTLSVDDLANSGQVGTARYMAPEVLESRMNLENVESFKQTDVYSMALVLWEMTSRCNAVGEVKDYEPPFGSKVREHPCVESMKDNVLRDRGRPEIPSFWLNHQGIQMVCETLTECWDHDPEARLTAQCVAERFSELEHLDRLSGRSCSEEKIPEDGSLNTTK
notes: whole, on cells
